# Test results published in paper PMC10512467, “Alternative splicing of a single exon causes a major impact on the affinity of Caenorhabditis elegans tropomyosin isoforms for actin filaments” (Frontiers in Cell and Developmental Biology, 2023).
# B1: LEV-11T (C. elegans low-molecular-weight tropomyosin isoform, exons E3b-E4a-E5a-E6-E7b-E8-E9b), recombinant with extra Ala-Ser after the initiator Met (natural protein)
# chain: MASSKVNKEGAQQTSLLDVLKKKMRQAREEAEAAKDEADEVKRQLEEERKKREDAEAEVAALNRRIVLVEEDLERTEDRLKTATSKLEQATKAADEADRARKSMETRSQQDEERANFLETQVDEAKVIAEDADRKYEEVARKLAMVEADLERAEERAEAGENKIVELEEELRVVGNNLKSLEVSEEKALQREDSYEEQIRTVSSRLKEAETRAEFAERSVQKLQKEVDRLEELRDAEVLKARQLQDELDHMVQELNSV
# Biological target: F-actin (actin purified from rabbit muscle acetone powder) (rabbit, UniProt P68135 1-377)
# Assay: co-sedimentation; F-actin co-sedimentation (supernatant depletion): constant 2 uM LEV-11 isoform with 0-60 uM F-actin, 1 h, in F-buffer (0.1 M KCl, 2 mM MgCl2, 20 mM HEPES-KOH, pH 7.5, 1 mM dithiothreitol); 200,000 x g for 20 min; bound portion from the depletion of the supernatant, SDS-PAGE densitometry
# Settings: both partners purified
binder,measurement,value
B1,Kd,3.7 µM
